Source: the supplement of paper PMC5998384

What was measured:
HeLa Kyoto [1] = assay: melting temperature (median over replicates), in situ; higher = more thermally stable
HeLa Kyoto [2] = assay: solubility in G1/S (NP-40 vs SDS abundance) (log2 ratio); higher = more soluble; conditions: cell cycle stage: G1/S
HeLa Kyoto [3] = assay: solubility change mitosis vs G1/S (difference of NP-40 vs SDS log2 ratios) (log2 ratio difference); higher = more soluble in mitosis
HeLa Kyoto [4] = assay: thermal stability score vs G1/S (z-score of summed log2 fold changes over temperatures); higher = more thermally stable than in G1/S
[5] = cell cycle stage: early G1 (4.5 h after nocodazole release)
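Throughout, for melting temperature (median over replicates), in situ: HeLa Kyoto cells synchronized by double thymidine or nocodazole block, proteins quantified by TMT10plex mass spectrometry, three independent biological replicates.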
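Throughout, for solubility change mitosis vs G1/S (difference of NP-40 vs SDS log2 ratios): synchronized HeLa Kyoto cells (double thymidine block for G1/S, nocodazole release for mitosis), protein amounts in NP-40 versus SDS lysates quantified by mass spectrometry, three biological replicates.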
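Throughout, for solubility in G1/S (NP-40 vs SDS abundance): HeLa Kyoto cells arrested at G1/S by double thymidine block, proteins quantified by TMT10plex mass spectrometry in mild NP-40 versus SDS extracts, three biological replicates.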
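Throughout, for thermal stability score vs G1/S (z-score of summed log2 fold changes over temperatures): synchronized HeLa Kyoto cells, proteins quantified by TMT10plex mass spectrometry, three biological replicates, mitosis taken 0.5 h after nocodazole release, G1/S directly after double thymidine block.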

Sequence	melting temperature (HeLa Kyoto [1]; cell cycle stage: G1/S) [°C]	melting temperature (HeLa Kyoto [1]; cell cycle stage: mitosis) [°C]	solubility in G1/S (log2) (HeLa Kyoto [2])	solubility change mitosis (log2) (HeLa Kyoto [3])	thermal stability score (HeLa Kyoto [4]; [5])	thermal stability score (HeLa Kyoto [4]; cell cycle stage: mitosis)
MSFFNFRKIFKLGSEKKKKQYEHVKRDLNPEDFWEIIGELGDGAFGKVYKAQNKETSVLAAAKVIDTKSEEELEDYMVEIDILASCDHPNIVKLLDAFYYENNLWILIEFCAGGAVDAVMLELERPLTESQIQVVCKQTLDALNYLHDNKIIHRDLKAGNILFTLDGDIKLADFGVSAKNTRTIQRRDSFIGTPYWMAPEVVMCETSKDRPYDYKADVWSLGITLIEMAEIEPPHHELNPMRVLLKIAKSEPPTLAQPSRWSSNFKDFLKKCLEKNVDARWTTSQLLQHPFVTVDSNKPIRELIAEAKAEVTEEVEDGKEEDEEEETENSLPIPASKRASSDLSIASSEEDKLSQNACILESVSEKTERSNSEDKLNSKILNEKPTTDEPEKAVEDINEHITDAQLEAMTELHDRTAVIKENEREKRPKLENLPDTEDQETVDINSVSEGKENNIMITLETNIEHNLKSEEEKDQEKQQMFENKLIKSEEIKDTILQTVDLVSQETGEKEANIQAVDSEVGLTKEDTQEKLGEDDKTQKDVISNTSDVIGTCEAADVAQKVDEDSAEDTQSNDGKEVVEVGQKLINKPMVGPEAGGTKEVPIKEIVEMNEIEEGKNKEQAINSSENIMDINEEPGTTEGEEITESSSTEEMEVRSVVADTDQKALGSEVQDASKVTTQIDKEKKEIPVSIKKEPEVTVVSQPTEPQPVLIPSININSDSGENKEEIGSLSKTETILPPESENPKENDNDSGTGSTADTSSIDLNLSISSFLSKTKDSGSISLQETRRQKKTLKKTRKFIVDGVEVSVTTSKIVTDSDSKTEELRFLRRQELRELRFLQKEEQRAQQQLNSKLQQQREQIFRRFEQEMMSKKRQYDQEIENLEKQQKQTIERLEQEHTNRLRDEAKRIKGEQEKELSKFQNMLKNRKKEVINEVEKAPKELRKELMKRRKEELAQSQHAQEQEFVQKQQQELDGSLKKIIQQQKAELANIERECLNNKQQLMRAREAAIWELEERHLQEKHQLLKQQLKDQYFMQRHQLLKRHEKETEQMQRYNQRLIEELKNRQTQERARLPKIQRSEAKTRMAMFKKSLRINSTATPDQDRDKIKQFAAQEEKRQKNERMAQHQKHENQMRDLQLQCEANVRELHQLQNEKCHLLVEHETQKLKELDEEHSQELKEWREKLRPRKKTLEEEFARKLQEQEVFFKMTGESECLNPSTQSRISKFYPIPSLHSTGS	50.2	49.9	0.0156	-0.139	-0.208	0.991
MSFICGLQSAARNHVFFRFNSLSNWRKCNTLASTSRGCHQVQVNHIVNKYQGLGVNQCDRWSFLPGNFHFYSTFNNKRTGGLSSTKSKEIWRITSKCTVWNDAFSRQLLIKEVTAVPSLSVLHPLSPASIRAIRNFHTSPRFQAAPVPLLLMILKPVQKLFAIIVGRGIRKWWQALPPNKKEVVKENIRKNKWKLFLGLSSFGLLFVVFYFTHLEVSPITGRSKLLLLGKEQFRLLSELEYEAWMEEFKNDMLTEKDARYLAVKEVLCHLIECNKDVPGISQINWVIHVVDSPIINAFVLPNGQMFVFTGFLNSVTDIHQLSFLLGHEIAHAVLGHAAEKAGMVHLLDFLGMIFLTMIWAICPRDSLALLCQWIQSKLQEYMFNRPYSRKLEAEADKIGLLLAAKACADIRASSVFWQQMEFVDSLHGQPKMPEWLSTHPSHGNRVEYLDRLIPQALKIREMCNCPPLSNPDPRLLFKLSTKHFLEESEKEDLNITKKQKMDTLPIQKQEQIPLTYIVEKRTGS [OMA1]	54.1	54.7	-0.436	-0.0922	-1.79	-1.54
MSFLLPKLTSKKEVDQAIKSTAEKVLVLRFGRDEDPVCLQLDDILSKTSSDLSKMAAIYLVDVDQTAVYTQYFDISYIPSTVFFFNGQHMKVDYGSPDHTKFVGSFKTKQDFIDLIEVIYRGAMRGKLIVQSPIDPKNIPKYDLLYQDI [TXNL4B]	51	51.8	0.0975	0.00266	0.0365	1.15
MSFLQDPSFFTMGMWSIGAGALGAAALALLLANTDVFLSKPQKAALEYLEDIDLKTLEKEPRTFKAKELWEKNGAVIMAVRRPGCFLCREEAADLSSLKSMLDQLGVPLYAVVKEHIRTEVKDFQPYFKGEIFLDEKKKFYGPQRRKMMFMGFIRLGVWYNFFRAWNGGFSGNLEGEGFILGGVFVVGSGKQGILLEHREKEFGDKVNLLSVLEAAKMIKPQTLASEKK [FAM213A]	56.6	55.5	-0.0704	-0.0729	-0.538	-0.108
MSFSRALLWARLPAGRQAGHRAAICSALRPHFGPFPGVLGQVSVLATASSSASGGSKIPNTSLFVPLTVKPQGPSADGDVGAELTRPLDKNEVKKVLDKFYKRKEIQKLGADYGLDARLFHQAFISFRNYIMQSHSLDVDIHIVLNDICFGAAHADDLFPFFLRHAKQIFPVLDCKDDLRKISDLRIPPNWYPDARAMQRKIIFHSGPTNSGKTYHAIQKYFSAKSGVYCGPLKLLAHEIFEKSNAAGVPCDLVTGEERVTVQPNGKQASHVSCTVEMCSVTTPYEVAVIDEIQMIRDPARGWAWTRALLGLCAEEVHLCGEPAAIDLVMELMYTTGEEVEVRDYKRLTPISVLDHALESLDNLRPGDCIVCFSKNDIYSVSRQIEIRGLESAVIYGSLPPGTKLAQAKKFNDPNDPCKILVATDAIGMGLNLSIRRIIFYSLIKPSINEKGERELEPITTSQALQIAGRAGRFSSRFKEGEVTTMNHEDLSLLKEILKRPVDPIRAAGLHPTAEQIEMFAYHLPDATLSNLIDIFVDFSQVDGQYFVCNMDDFKFSAELIQHIPLSLRVRYVFCTAPINKKQPFVCSSLLQFARQYSRNEPLTFAWLRRYIKWPLLPPKNIKDLMDLEAVHDVLDLYLWLSYRFMDMFPDASLIRDLQKELDGIIQDGVHNITKLIKMSETHKLLNLEGFPSGSQSRLSGTLKSQARRTRGTKALGSKATEPPSPDAGELSLASRLVQQGLLTPDMLKQLEKEWMTQQTEHNKEKTESGTHPKGTRRKKKEPDSD [SUPV3L1]	51.4	51.5	-0.0284	-0.0848	0.374	0.138
MSGCDAREGDCCSRRCGAQDKEHPRYLIPELCKQFYHLGWVTGTGGGISLKHGDEIYIAPSGVQKERIQPEDMFVCDINEKDISGPSPSKKLKKSQCTPLFMNAYTMRGAGAVIHTHSKAAVMATLLFPGREFKITHQEMIKGIKKCTSGGYYRYDDMLVVPIIENTPEEKDLKDRMAHAMNEYPDSCAVLVRRHGVYVWGETWEKAKTMCECYDYLFDIAVSMKKVGLDPSQLPVGENGIV [APIP]	59.3	57.6	0.253	-0.078	-1.32	-2.26
MSGCRVFIGRLNPAAREKDVERFFKGYGRIRDIDLKRGFGFVEFEDPRDADDAVYELDGKELCSERVTIEHARARSRGGRGRGRYSDRFSSRRPRNDRRNAPPVRTENRLIVENLSSRVSWQDLKDFMRQAGEVTFADAHRPKLNEGVVEFASYGDLKNAIEKLSGKEINGRKIKLIEGSKRHSRSRSRSRSRTRSSSRSRSRSRSRSRKSYSRSRSRSRSRSRSKSRSVSRSPVPEKSQKRGSSSRSKSPASVDRQRSRSRSRSRSVDSGN [SRSF5]	51.3	51.5	-0.33	0.302	1.65	-4.18
MSGDGATEQAAEYVPEKVKKAEKKLEENPYDLDAWSILIREAQNQPIDKARKTYERLVAQFPSSGRFWKLYIEAEIKAKNYDKVEKLFQRCLMKVLHIDLWKCYLSYVRETKGKLPSYKEKMAQAYDFALDKIGMEIMSYQIWVDYINFLKGVEAVGSYAENQRITAVRRVYQRGCVNPMINIEQLWRDYNKYEEGINIHLAKKMIEDRSRDYMNARRVAKEYETVMKGLDRNAPSVPPQNTPQEAQQVDMWKKYIQWEKSNPLRTEDQTLITKRVMFAYEQCLLVLGHHPDIWYEAAQYLEQSSKLLAEKGDMNNAKLFSDEAANIYERAISTLLKKNMLLYFAYADYEESRMKYEKVHSIYNRLLAIEDIDPTLVYIQYMKFARRAEGIKSGRMIFKKAREDTRTRHHVYVTAALMEYYCSKDKSVAFKIFELGLKKYGDIPEYVLAYIDYLSHLNEDNNTRVLFERVLTSGSLPPEKSGEIWARFLAFESNIGDLASILKVEKRRFTAFKEEYEGKETALLVDRYKFMDLYPCSASELKALGYKDVSRAKLAAIIPDPVVAPSIVPVLKDEVDRKPEYPKPDTQQMIPFQPRHLAPPGLHPVPGGVFPVPPAAVVLMKLLPPPICFQGPFVQVDELMEIFRRCKIPNTVEEAVRIITGGAPELAVEGNGPVESNAVLTKAVKRPNEDSDEDEEKGAVVPPVHDIYRARQQKRIR [CSTF3]	52	51.9	-0.0695	-0.000668	0.26	-0.413
